The RNAGym collection of RNA variant scans (doi:10.7554/elife.80360)

B1: Hammerhead Ribozyme (parent)
chain: ACCGGAUGUGCUUUCCGGUCUGAUGAGUCCGUGAGGACGAAACAG

Variants of: B1
Assay: self-cleavage, relative activity (ratio to wild type); higher = more cleavage; co-transcriptional

Row | Variant | self-cleavage
1 | G25A G31A | 0.347
2 | G25A G31C | 0.326
3 | G25A G31U | 0.416
4 | G25A G33A | 0.379
5 | G25A G33C | 0.438
6 | G25A G33U | 0.45
7 | G25A G35A | 0.315
8 | G25A G35C | 0.347
9 | G25A G35U | 0.35
10 | G25A G36A | 0.32
11 | G25A G36C | 0.302
12 | G25A G36U | 0.33
13 | G25A G39A | 0.335
14 | G25A G39C | 0.305
15 | G25A G39U | 0.351
16 | G25A G45A | 0.336
17 | G25A G45C | 0.447
18 | G25A G45U | 0.45
19 | G25A U28A | 0.342
20 | G25A U28C | 0.355
21 | G25A U28G | 0.313

Row | Variant | self-cleavage
22 | G25A U32A | 0.352
23 | G25A U32C | 0.417
24 | G25A U32G | 0.419
25 | G25C | 0.324
26 | G25C A26C | 0.355
27 | G25C A26G | 0.265
28 | G25C A26U | 0.337
29 | G25C A34C | 0.29
30 | G25C A34G | 0.332
31 | G25C A34U | 0.327
32 | G25C A37C | 0.285
33 | G25C A37G | 0.321
34 | G25C A37U | 0.286
35 | G25C A40C | 0.359
36 | G25C A40G | 0.447
37 | G25C A40U | 0.332
38 | G25C A41C | 0.359
39 | G25C A41G | 0.359
40 | G25C A41U | 0.319
41 | G25C A42C | 0.293
42 | G25C A42G | 0.27

Row | Variant | self-cleavage
43 | G25C A42U | 0.332
44 | G25C A44C | 0.29
45 | G25C A44G | 0.556
46 | G25C A44U | 0.263
47 | G25C C29A | 0.243
48 | G25C C29G | 0.334
49 | G25C C29U | 0.235
50 | G25C C30A | 0.262
51 | G25C C30G | 0.221
52 | G25C C30U | 0.314
53 | G25C C38A | 0.367
54 | G25C C38G | 0.304
55 | G25C C38U | 0.22
56 | G25C C43A | 0.302
57 | G25C C43G | 0.235
58 | G25C C43U | 0.425
59 | G25C G27A | 0.285
60 | G25C G27C | 0.278
61 | G25C G27U | 0.294
62 | G25C G31A | 0.339
63 | G25C G31C | 0.339

Row | Variant | self-cleavage
64 | G25C G31U | 0.358
65 | G25C G33A | 0.31
66 | G25C G33C | 0.272
67 | G25C G33U | 0.231
68 | G25C G35A | 0.344
69 | G25C G35C | 0.355
70 | G25C G35U | 0.357
71 | G25C G36A | 0.305
72 | G25C G36C | 0.281
73 | G25C G36U | 0.309
74 | G25C G39A | 0.33
75 | G25C G39C | 0.242
76 | G25C G39U | 0.33
77 | G25C G45A | 0.302
78 | G25C G45C | 0.378
79 | G25C G45U | 0.279
80 | G25C U28A | 0.338
81 | G25C U28C | 0.309
82 | G25C U28G | 0.311
83 | G25C U32A | 0.298
84 | G25C U32C | 0.342
